Assay results: publication PMC9634978 (Molecular Biology of the Cell, 2022)
Positions count from the first letter of the chain named.

What was measured:
his6-Sec18 [1] = biological target: T1, his6-Sec18 (S. cerevisiae, UniProt P18759 1-758); test: liposome co-floatation
T1 sequence (looked up): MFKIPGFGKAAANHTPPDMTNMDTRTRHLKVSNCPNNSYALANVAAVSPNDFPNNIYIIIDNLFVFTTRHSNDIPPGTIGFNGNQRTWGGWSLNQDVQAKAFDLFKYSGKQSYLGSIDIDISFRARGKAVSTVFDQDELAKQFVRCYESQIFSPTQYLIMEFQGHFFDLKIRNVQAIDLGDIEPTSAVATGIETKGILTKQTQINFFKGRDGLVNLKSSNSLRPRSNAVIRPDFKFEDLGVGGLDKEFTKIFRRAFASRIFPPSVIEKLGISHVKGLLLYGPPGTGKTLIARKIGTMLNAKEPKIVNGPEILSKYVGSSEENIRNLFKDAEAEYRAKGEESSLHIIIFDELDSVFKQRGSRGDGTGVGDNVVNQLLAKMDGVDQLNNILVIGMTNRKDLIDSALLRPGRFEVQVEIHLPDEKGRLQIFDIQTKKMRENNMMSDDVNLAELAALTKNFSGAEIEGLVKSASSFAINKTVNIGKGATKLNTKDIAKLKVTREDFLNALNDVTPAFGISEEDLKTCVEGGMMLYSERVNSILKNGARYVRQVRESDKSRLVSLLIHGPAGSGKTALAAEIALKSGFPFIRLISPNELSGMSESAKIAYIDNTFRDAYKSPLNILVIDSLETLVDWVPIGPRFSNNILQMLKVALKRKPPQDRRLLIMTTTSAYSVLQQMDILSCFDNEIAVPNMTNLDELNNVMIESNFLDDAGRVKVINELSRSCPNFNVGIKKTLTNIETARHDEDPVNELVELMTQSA

his6-Sec18 [2] = biological target: T1, his6-Sec18; test: liposome co-floatation; remark: listed apart in the source

B1: Sec17-K159EK163E (natural protein, S. cerevisiae, UniProt P32602 1-292, looked up)
chain: MSDPVELLKRAEKKGVPSSGFMKLFSGSDSYKFEEAADLCVQAATIYRLRKELNLAGDSFLKAADYQKKAGNEDEAGNTYVEAYKCFKSGGNSVNAVDSLENAIQIFTHRGQFRRGANFKFELGEILENDLHDYAKAIDCYELAGEWYAQDQSVALSNECFIECADLKALDGQYIEASDIYSKLIKSSMGNRLSQWSLKDYFLKKGLCQLAATDAVAAARTLQEGQSEDPNFADSRESNFLKSLIDAVNEGDSEQLSEHCKEFDNFMRLDKWKITILNKIKESIQQQEDDLL
his6-Sec18 [1]
  binding result: binds

B2: his6-Sec17 (natural protein, S. cerevisiae, UniProt P32602 1-292, looked up)
chain: B1 chain with E159K, E163K
his6-Sec18 [2]
  stoichiometry N: ~3 mol Sec17 per mol Sec18 hexamer
